Laboratory results from US12692524B2, “Sialyltransferases and their use in producing sialylated oligosaccharides” (Chr. Hansen A/S, priority 2017, dated 2026).

B1: SiaT21: sialyltransferase of Vibrio harveyi, acc. WP_017817635, SEQ ID NO: 21 (protein, listed as Vibrio harveyi)
chain: MDSSPENTSSTLEIYIDSATLPSLQHMVKIIDEQSGNKKLINWKRYPIDDELLLDKINALSFSDTTDLTRYMESILLIGDIKRVVINGNSLSNYNIVGVMRSINALGLDLDVEINFYDDGSAEYVRLYNFSQLPEAERELLVSMSKNNILAAVNGIGSYDSGSPENIYGFAQIYPATYHMLRADIFDTDLEIGLIRDILGDNVKQMKWGQFLGFNEEQKELFYQLTSFNPDKIQAQYKESPNKNFVFVGTNSRSATAEQQINIIKEAKKLDSEIIPNSIDGYDLFFKGHPSATYNQQIVDAHDMTEIYNRTPFEVLAMTSSLPDAVGGMGSSLFFSLPKTVETKFIFYKSGTDIESNALIQVMLKLGIITDEKVRFTTDIK
B2: SiaT17: sialyltransferase of Photobacterium phosphoreum JT-ISH-467, acc. BAF63530, SEQ ID NO: 8 (protein, listed as Photobacterium phosphoreum)
chain: MGCNSDSKHNNSDGNITKNKTIEVYVDRATLPTIQQMTQIINENSNNKKLISWSRYPINDETLLESINGSFFKNRPELIKSLDSMILTNEIKKVIINGNTLWAVDVVNIIKSIEALGKKTEIELNFYDDGSAEYVRLYDFSRLPESEQEYKISLSKDNIQSSINGTQPFDNSIENIYGFSQLYPTTYHMLRADIFETNLPLTSLKRVISNNIKQMKWDYFTTFNSQQKNKFYNFTGFNPEKIKEQYKASPHENFIFIGTNSGTATAEQQIDILTEAKKPDSPIITNSIQGLDLFFKGHPSATYNQQIIDAHNMIEIYNKIPFEALIMTDALPDAVGGMGSSVFFSLPNTVENKFIFYKSDTDIENNALIQVMIELNIVNRNDVKLISDLQ
B3: SiaT22: sialyltransferase of Streptococcus entericus, acc. WP_018369230, SEQ ID NO: 13 (protein, listed as Streptococcus entericus)
chain: MKKVYFCHTVYHLLITLCKISVEEQVEIIVFDTVSNHELIVQKIRDVFVNTTVLFAEQNTDFSILEIDRATDIYVFNDWTPIGAYLRKNKLFYHLIEDGYNYHEYNVYANALTMKRRLLNFVLRREEPSGFSRYVRSIEVNRVKYLPNDCRKSKWVEKPRSALFENLVPEHKQKIITIFGLENYQDSLRGVLVLTQPLVQDYWDRDITTEEEQLEFYRQIVESYGEGEQVFFKIHPRDKVDYSSLTNVIFLKKNVPMEVYELIADCHFTKGITHSSTALDFLSCVDKKITLKQMKANS
B4: SiaT24: sialyltransferase of Avibacterium paragaffinarum, acc. WP_021724759, SEQ ID NO: 9 (protein, listed as Avibacterium paragallinarum)
chain: MRKIITFFSLFFSISAWCQKMEIYLDYASLPSLNMILNLVENKNNEKVERIIGFERFDFNKEILNSFSKERIEFSKVSILDIKEFSDKLYLNIEKSDTPVDLIIHTNLDHSVRSLLSIFKTLSPLFHKINIEKLYLYDDGSGNYVDLYQHRQENISAILIEAQKKLKDALENRETDTDKLHSLTRYTWHKIFPTEYILLRPDYLDIDEKMQPLKHFLSDTIVSMDLSRFSHFSKNQKELFLKITHFDQNIFNELNIGTKNKEYKTFIFTGTTTWEKDKKKRLNNAKLQTEILESFIKPNGKFYLGNDIKIFFKGHPKGDDINDYIIRKTGAEKIPANIPFEVLMMTNSLPDYVGGIMSTVYFSLPPKNIDKVVFLGSEKIKNENDAKSQTLSKLMLMLNVITPEQIFFEEMPNPINF

Assay: In vivo screening in E. coli #1363/#1730 with lactose as acceptor, sialyllactose identified by TLC
Type: cell-based, Escherichia coli BL21(DE3)
Conditions: 1.5 mM lactose, 72 to 96 hours, qualitative via TLC
Method: Escherichia coli BL21(DE3) #1363 and #1730 harbouring plasmids encoding for 100 sialyltransferases were grown at 30° C. in 100 ml shake flasks filled with 20 ml of mineral salts medium (Samain et al., J. Biotech. 1999, 72:33-47) supplemented with 2% (wt/vol) glucose, ampicillin 100 μg ml^−1, kanamycin 15 μg ml^−1 and zeocin 40 μg ml^−1. When the cultures reached an OD600 of 0.1 to 0.3, gene expression was induced by addition of 0.3 mM IPTG. After an incubation for one hour, 1.5 mM lactose was added to #1363 cultures whereas 1.5 mM lactose as well as 1.5 mM sialic acid was added to #1730 cultures. The incubation continued for 72 to 96 hours. Then, cells were harvested by centrifugation and mechanically disrupted in a defined volume using glass beads. Subsequently, samples were applied to thin layer chromatography (TLC) on Silica Gel 60 F254 (Merck KGaA, Darmstadt, Germany). A mixture of butanol:acetone:acetic acid:H2O (35/35/7/23 (v/v/v/v)) was used as mobile phase. For detection of the separated substances, the TLC plate was soaked with thymol reagent (0.5 g thymol solved in 95 ml ethanol, 5 ml sulfuric acid added) and heated.
In the entire screening, thirty two genes were identified to encode for α-2,3-sialyltransferases, thus producing 3′-SL. 19 enzymes synthesized 6′-SL and were depicted as α-2,6-sialyltransferases. An α-2,3- as well as an α-2,6-sialyltransferase activity could only be observed for 3 enzymes. […] The screening appeared highly accurate since the described activities of extensively characterized sialyltransferases, e. g. […] Regarding the product formation, the experimental setting allowed a semi-quantitative comparison of the screened enzymes. But to achieve deeper knowledge about their kinetic properties, the 3 potentially best performing α-2,3- and α-2,6-sialyltransferases were applied to in vitro assays.

Molecule	Production of sialyllactose in-vivo
B1	3′-SL
B2	3′-SL
B3	3′-SL
B4	3′-SL

Assay: In vitro sialylation of LNT by protein extracts, LST-a/-b quantified by LC-MS/MS
Type: biochemical
Conditions: 5 mM LNT, 10 mM CMP-Neu5Ac, 16 hours, LC-MS/MS; relative quantity; n.d.: not detectable
Method: Escherichia coli BL21(DE3) harbouring plamids encoding for 100 sialyltransferases were grown at 30° C. in 100 ml shake flasks filled with 20 ml of 2YT medium supplemented with ampicillin 100 μg ml^−1. When the cultures reached an OD600 of 0.1 to 0.3, gene expression was induced by addition of 0.3 mM IPTG and the incubation was continued for 12 to 16 hours. Cells were harvested by centrifugation and mechanically disrupted in a defined volume of 50 mM Tris-HCl pH7.5 using glass beads. The protein extract was kept on ice until the assay started. The in vitro assay was carried out in a total volume of 25 μl including 50 mM Tris-HCl pH7.5, 5 mM MgCl2, 10 mM CMP-Neu5Ac and 5 mM LNT. The assay started with the addition of 3 μl protein extract and continued for 16 hours. Product formation was determined by mass spectrometry.
Mass spectrometry analysis was performed by MRM (multiple reaction monitoring) using a LC Triple-Quadrupole MS detection system. Precursor ions are selected and analyzed in quadrupole 1, fragmentation takes place in the collision cell using argon as CID gas, selection of fragment ions is performed in quadrupole 3. Chromatographic separation of lactose, 3′-Sialyllactose and 6′-Sialyllactose after dilution of culture supernatant 1:100 with H2O (LC/MS Grade), was performed on a XBridge Amide HPLC column (3.5 μm, 2.1×50 mm (Waters, USA) with a XBridge Amide guard cartridge (3.5 μm, 2.1×10 mm) (Waters, USA). Column oven temperature of the HPLC system was 50° C. The mobile phase was composed of acetonitrile:H2O with 10 mM ammonium acetate. A 1 μl sample was injected into the instrument; the run was performed for 3.60 min with a flow rate of 400 μl/min. 3′-Sialyllactose and 6′-Sialyllactose were analyzed by MRM in ESI positive ionization mode. The mass spectrometer was operated at unit resolution. Sialyllactose forms an ion of m/z 656.2 [M+Na]. The precursor ion of Sialyllactose was further fragmented in the collision cell into the fragment ions m/z 612.15, m/z 365.15 and m/z 314.15. Collision energy, Q1 and Q3 Pre Bias were optimized for each analyte individually. Chromatographic separation of lactose, LNT-II, LNT and LST-a or -b after dilution of particle-free biocatalysis-reaction or crude extract, respectively, 1:50 with H2O (LC/MS Grade), was performed on a XBridge Amide HPLC column (3.5 μm, 2.1×50 mm (Waters, USA) with a XBridge Amide guard cartridge (3.5 μm, 2.1×10 mm) (Waters, USA). Column oven was run at 35° C. The mobile phase was composed of acetonitrile:H2O with 0.1% ammonium hydroxide. A 1 μl sample was injected into the instrument; the run was performed for 3.50 min with a flow rate of 300 μl/min. Lactose, LNT-II, LNT as well as LST-a and -b were analyzed by MRM in ESI negative ionization mode. The mass spectrometer was operated at unit resolution. Lactose forms an ion of m/z 341.00 [M−H]. The precursor ion of Lactose was further fragmented in the collision cell into the fragment ions m/z 179.15, m/z 161.15 and m/z 101.05. LNT-II forms an ion of m/z 544.20 [M−H]. The precursor ion of LNT-II was further fragmented into the fragment ions m/z 382.10, m/z 161.00 and m/z 112.90. LNT forms an ion of m/z 706.20 [M−H]. The precursor ion of LNT was further fragmented into the fragment ions m/z 382.10, m/z 202.10 and m/z 142.00. LST-a and -b forms an ion of m/z 997.20 [M−H]. The precursor ion of LST-a and-b was further fragmented into the fragment ions m/z 290.15, m/z 202.15 and m/z 142.15. Collision energy, Q1 and Q3 Pre Bias were optimized for each analyte individually. Quantification methods were established using commercially available standards (Carbosynth, Compton, UK).
Twenty eight genes were identified to produce LST-a whereas only 6 enzymes synthesized LST-b. […] Irrespectively of the protein overexpression level, sialyltransferases that produced best were selected for determination of Km and Vmax.

Molecule	Relative efficacy of sialyltransferases regarding in-vitro production of sialyllacto-N-tetraoses: LST-a
B1	12
B2	1.24 × 10^3
B3	564
B4	835
